Measurements published in the supplement of paper PMC9170038.

Test system: MS2 coat protein
Experiment: apparent KD of MS2 coat protein; designed switch direction (-1 OFF switch, 1 ON switch): 1; higher = weaker reporter binding
In short: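 Normalised cluster fluorescence was curve-fitted, and each design's median over clusters is its apparent KD. Before this, SNAP-549-labelled MS2 coat protein was titrated from 0.7 or 1.5 nM, doubling to 3 µM, over RNA switches transcribed on Illumina chips by stalled E. coli RNA polymerase. Titrations had no input, 200 uM small-molecule ligand, or an oligonucleotide input, and steps lasted 0.8–1.5 h (lowest) to 10–20 min (highest).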

[1] = Eterna round: R95, input ligand: FMN 200 uM
[2] = Eterna round: R95, input ligand: microRNA oligo, concentration not stated
[3] = Eterna round: R95, input ligand: none
[4] = input ligand: microRNA oligo, concentration not stated

Sequence | apparent KD of MS2 coat protein [1] [nM] | apparent KD of MS2 coat protein [2] [nM] | apparent KD of MS2 coat protein [3] [nM] | apparent KD of MS2 coat protein (input ligand: FMN 200 uM) [nM] | apparent KD of MS2 coat protein [4] [nM] | apparent KD of MS2 coat protein (input ligand: none) [nM]
AUAAGUUUGAUGCUCGUCUCUCCGUACAAACAUGAGGAUCACCCAUGUGGUCGGGUAGUAGCCCGGCCAGUAUGGCC [Ribiesreri] (puzzle: Sensor for hsa-mir-208a) | 40.3 | 20.3 | 46 | – | – | –
GUACAUAUCAGAGGAUAUCACGUCGAUUAGACGUGAGAAGGCUGAUCACACAUGAAUAUUAAUACAUGAGGAUCACCCAUGUAC [SSNG1/13-A2] (Eterna round: R96, puzzle: Same State NG 1) | – | – | – | 16.9 | 28.5 | 37.2
UAUGAACAUGAGGAUCACCCAUGUGGUAAGAUCACAGGAUAUCACCUCGGACGUGCGAUGUGAGAAGGGUGAUGGU [Same State 1 - Mod of Vinnie Anrelari v.2] (puzzle: Same State 1) | – | 419 | – | – | – | –
AAUUAACAUGAGGAUCACCCAUGUCGUAUUAUGGGAGGAUAUACGUGGACCGUAGUCCGCGUAGAAGGCCUAAUUA [Mat - Same State 1 - Mod of JL - D21] (puzzle: Same State 1) | – | 34.6 | – | – | – | –
AGCUAUUAAUCAGGAUAUAGUGACAUGAGGAUCACCCAUGUAUUGAUGAUUAAAUGUGGUCGCCGCUAGAAGGGAUUACUAACA [SameState NG2 #46] (Eterna round: R96, puzzle: Same State NG 2) | – | – | – | 35.2 | 23.2 | 30.7
GCCGCGUUUCGCGCCUACAUGAGGAUCACCCAUGUUUGUAGGCAGGAUAUCGUCCGCUUUGCGGGCGAGAAGGGCUGUUGUGGC [salish99_SSNG3_R04_021] (Eterna round: R96, puzzle: Same State NG 3) | – | – | – | 47 | 43.5 | 54.8
AAUUAAGAUCGAGGAUAUCACGUCGAAUAGACGUGAGAAGGCGAUCAUAACAUGAGGAUCACCCAUGUAUUACAUGAAUUAAUU [SSNG1/4-B1] (Eterna round: R96, puzzle: Same State NG 1) | – | – | – | 23.6 | 22.9 | 27
GCCGCGUUUCGCGCCUACAUGAGGAUCACCCAUGUUUGUAGGCAGGAUAUCGUUUGCUUUGCAAUCGAGAAGGGCUGUUGUGGC [salish99_SSNG3_R04_014] (Eterna round: R96, puzzle: Same State NG 3) | – | – | – | 33 | 44.6 | 56.6
UUACGUACGUAUGAGGAUAUCCAUAAUAAGACAUGAGGAUCACCCAUGUAAACAAAACAAUAAUGGGAGAAGGCAUACGUACGAA [Mat - Same state - Malcolm Mod - D135] (Eterna round: R96, puzzle: Same State 2) | – | – | – | – | 53 | –
UACAAUCUAUCUGAGGAUAUCAUGAAAAAAACAUGAGGAUCACCCAUGUGCAGGAAAACUGCAUAUGAGAAGGCAGAUAGAUUGU [salish99_SS2_r3_006] (Eterna round: R96, puzzle: Same State 2) | – | – | – | – | 585 | –
GGAUGAUAGACAGGAUAUUGAUUGUAAUUAGGUCAAGAAGGGUCUUUGAUUUAAACGACCAGUUACAUGAGGAUCACCCAUGUU [JR_SSNG1_Sub028] (Eterna round: R96, puzzle: Same State NG 1) | – | – | – | 82.5 | 65.9 | 201
AAUAAGUUCAGCUCGUCUUGCGCCGACUGACAUGAGGAUCACCCAUGUGGAUUCCAAGGAAUCCAUUGGCGUGUUUC [Ororer] (puzzle: Sensor for hsa-mir-208a) | 34.8 | 54.3 | 24.8 | – | – | –
GCGGAACCUGACAUGAGGAUCACCCAUGUUCCGGAAACGGCACAGGAUAUCUGUCCGAAAAGGUCAGAGAAGGGUGGAAACCGC [Fiskers NG3ss - 98] (Eterna round: R96, puzzle: Same State NG 3) | – | – | – | 68 | 179 | 193
UACAAACGCGGAGGAUAUGGGCGAGGCGCAGAGGUCUGCGUCAAAACAUGAGGAUCACCCAUGUCCCAGAAGGCCGCGCAAACU [Anorra] (Eterna round: R96, puzzle: Same State NG 2) | – | – | – | 16.3 | 73.8 | 56.1
UACAAUCUAUCUGAGGAUAUCAUGAAAUAAACAUGAGGAUCACCCAUGUGCAGGAAAACUGCAUAUGAGAAGGCAGAUAGAUUGA [salish99_ss2_r3_018] (puzzle: Same State 2) | 50.2 | 1130 | 1810 | – | – | –
CUCAAAACAAGUUGCAGUGUUCGUCUUUAACAUGAGGAUCACCCAUGUAAUAACCCAGUGGAAGCGCUCGGGCCACC [Ineson] (puzzle: Sensor for hsa-mir-208a) | 30.2 | – | 28.5 | – | – | –

Sequence | apparent KD of MS2 coat protein [1] [nM] | apparent KD of MS2 coat protein [2] [nM] | apparent KD of MS2 coat protein [3] [nM] | apparent KD of MS2 coat protein (input ligand: FMN 200 uM) [nM] | apparent KD of MS2 coat protein [4] [nM] | apparent KD of MS2 coat protein (input ligand: none) [nM]
GGAGCCGGCCUAGGAUAUUUCAUUUAAAAACAUGAGGAUCACCCAUGUAGGCCAGAAGGCCUUGGGAAGAAGGAGGUCGGCUCC [Loop Effect - U24,U25] (Eterna round: R96, puzzle: Same State NG 2) | – | – | – | 11.2 | 22.7 | 44.2
AUAUUACAUGAGGAUCACCCAUGUCUCUAAAGUCGAGGAUAUGGGCAGGUUAUAUCCGAACCAGAAGGCGAAUUAU [SS1 Teenbexe 9] (puzzle: Same State 1) | 66.9 | 317 | 633 | – | – | –
GGUUUAGUCAGGUACAGUUGCACCUGAAAACAUGAGGAUCACCCAUGUUUGGGACAAGCUUUGCUCCUCGUCUUGCC [Ralausen] (puzzle: Sensor for hsa-mir-208a) | 101 | 77.6 | 152 | – | – | –
GCAGGACGGUAAAACAUCUCACAUGAGGAUCACCCAUGUCGUGAGGAUAUGGAUCCUAAUUGGAUCCAGAAGGCACGGUCCUGC [Fiskers NG3ss - 29] (Eterna round: R96, puzzle: Same State NG 3) | – | – | – | 18.4 | 14 | 13.6
AGGCUCAGACGAGGAUAUAUGUCUCGAGCUUCGGCUCGAGACAUGAGGAUCACCCAUGUAAUAACAUAGAAGGUGUCUGAGCCA [SSNG2/1-C1] (Eterna round: R96, puzzle: Same State NG 2) | – | – | – | 49.1 | 208 | 253
UAAUGUUAGCGAGGAUAUCGUUUAUUGAAGUUACGAGAAGGCGCUCUUCUUACAUGAGGAUCACCCAUGUCUGUUUUGCAUGAU [JR_SSNG1_Sub068] (Eterna round: R96, puzzle: Same State NG 1) | – | – | – | – | 50 | –
UUAUUAUAUAUAGGAUAUUGAUGUAAUUUAUUUCAAGAAGGAUAUACAUGAGGAUCACCCAUGUUGGAUAGGGUUAGUUUGUUU [JR_SSNG1_Sub079] (Eterna round: R96, puzzle: Same State NG 1) | – | – | – | – | 74 | –
AAAAGAAACGCAGGAUAUGCACAUGAGGAUCACCCAUGUCCCACAGGCUCGACCGAGCCCGUGAAGCAGAAGGGUGUAAGAAAA [Redibere] (Eterna round: R96, puzzle: Same State NG 2) | – | – | – | 82.5 | 426 | 3390
UACAUACGCGGAGGAUAUGGGCGAGGCGCAGAGGUCUGCGUCAAAACAUGAGGAUCACCCAUGUCCCAGAAGGCCGCGUAAACU [Enisen] (Eterna round: R96, puzzle: Same State NG 2) | – | – | – | 15.7 | 51.3 | 73.4
AACAAUCUAUCUGAGGAUAUCAUGAAAAAAACAUGAGGAUCACCCAUGUGCAGGAAAACUGCAUAUGAGAAGGCAGAUAGAUUGC [salish99_SS2_r3_004] (puzzle: Same State 2) | 32.5 | 785 | 1690 | – | – | –
UAUGAUGCCGUAGGAUAUCUAGGAUAUGGACGAGGAUCACCCGAGCAGCAUCAGCGCACCAGAGGAGAGAAGGACGCUUUGGAA [pwkr ssNG2 2F5 2FMN.22] (Eterna round: R96, puzzle: Same State NG 2) | – | – | – | 477 | 658 | 486
GCUGCAAGGGCAGGAUAUGGGUCCAAAGCGCAAGUGCGCUUUGGUACAUGAGGAUCACCCAUGUCCCAGAAGGGCCCAAACAGC [Bientierqu] (Eterna round: R96, puzzle: Same State NG 2) | – | – | – | 15.5 | 87.2 | 121
GCGCAAUGAUGUGACAUGAGGAUCACCCAUGUAACCUCAUGUAAGGAUAUCGGGAAAAAAAAAACCGAGAAGGUAUGGUCACGC [AK SSNG3-V2-27.2] (Eterna round: R96, puzzle: Same State NG 3) | – | – | – | 145 | 61.4 | 138
GGGAGAGGCGCAGGAUAUGGUGAGGAUCACCCACUAGAAGGGUGCACAUGAGAAUCGAACAUGAGGAUCACCCAUGUUCUGAGC (Eterna round: R96, puzzle: Same State NG 1) | – | – | – | 560 | 162 | 348
CCUUAGUACAAUUUAGAUCUACAUGAGGAUCACCCAUGUACUGAGGAUAUCAGCUCGAAUAGAGCUGAGAAGGCAGAAGUACUU [SSNG3/7-A1] (Eterna round: R96, puzzle: Same State NG 3) | – | – | – | 60.3 | 154 | 130
ACAUGAGACUUAGGAUAUGUUGUACCUACAUGUGACAUGAGGAUCACCCAUGUGGUAAGUAUGAGGCAGAAGGAAGAGAUAUGU [Equivalence 39 - Jieux - Same State NG 2] (Eterna round: R96, puzzle: Same State NG 2) | – | – | – | 23.5 | 45.9 | 73.1
